In article PMC9352680, “A comprehensive thermodynamic model for RNA binding by the Saccharomyces cerevisiae Pumilio protein PUF4”:

T1: PUF4 RNA-binding domain (Saccharomyces cerevisiae, UniProt P25339 537-888)
T1 sequence: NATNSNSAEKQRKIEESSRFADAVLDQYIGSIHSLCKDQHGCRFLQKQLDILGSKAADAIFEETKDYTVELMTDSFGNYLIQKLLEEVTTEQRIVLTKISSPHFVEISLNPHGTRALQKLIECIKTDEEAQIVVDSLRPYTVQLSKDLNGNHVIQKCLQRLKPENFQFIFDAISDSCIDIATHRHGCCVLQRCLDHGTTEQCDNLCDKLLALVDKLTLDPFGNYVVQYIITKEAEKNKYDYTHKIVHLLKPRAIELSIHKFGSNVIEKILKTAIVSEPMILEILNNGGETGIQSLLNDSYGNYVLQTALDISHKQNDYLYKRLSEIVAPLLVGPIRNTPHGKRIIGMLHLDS

B1: Id_ii_S1_P4E.2_K4.1_C4.2_[C-2A]_H4.1_A4.1_F4.1_T4.2_[G10T]_[T11C] (ssRNA)
RNA: UCUCUUAUUGUAUAUUAUCUCUCUU
B2: Id_ii_S1_P4E.2_K4.1_C4.2_[C-2A]_H4.1_A4.1_F4.1_T4.2_[G10C] (ssRNA)
RNA: UCUCUUAUUGUAUAUUACUUCUCUU
B3: Id_ii_S1_P4E.2_K4.1_C4.2_[C-2A]_H4.1_A4.1_F4.1_T4.2_[T11C] (ssRNA)
RNA: UCUCUUAUUGUAUAUUAGCUCUCUU
B4: Id_ii_S1_P4E.2_K4.1_C4.2_[C-2A]_H4.1_A4.1_F4.1_T4.2_[G10A] (ssRNA)
RNA: UCUCUUAUUGUAUAUUAAUUCUCUU
B5: Id_ii_S1_P4E.2_K4.1_C4.2_[T-1A]_H4.1_A4.1_F4.1_T4.2_[G10T] (ssRNA)
RNA: UCUCUUCAUGUAUAUUAUUUCUCUU
B6: Id_ii_S1_P4E.2_K4.1_C4.2_[T-1A]_H4.1_A4.1_F4.1_T4.2_[G10A]_[T11A] (ssRNA)
RNA: UCUCUUCAUGUAUAUUAAAUCUCUU
B7: Id_ii_S1_P4E.2_K4.1_C4.2_[T-1A]_H4.1_A4.1_F4.1_T4.2_[G10C]_[T11C] (ssRNA)
RNA: UCUCUUCAUGUAUAUUACCUCUCUU
B8: Id_ii_S1_P4E.3_K4.2_C4.2_[C-2G]_[T-1C]_H4.2_A4.1_F4.1_T4.2_[G10T]_[T11C] (ssRNA)
RNA: UCUCUUGCUAUAUAUUAUCUCUCUU
B9: Id_ii_S1_P4E.2_K4.1_C4.2_[T-1G]_H4.1_A4.1_F4.1_T4.2_[G10T] (ssRNA)
RNA: UCUCUUCGUGUAUAUUAUUUCUCUU
B10: Id_ii_S1_P4E.2_K4.1_C4.2_[T-1G]_H4.1_A4.1_F4.1_T4.2_[G10A] (ssRNA)
RNA: UCUCUUCGUGUAUAUUAAUUCUCUU
B11: Id_ii_S1_P4E.2_K4.1_C4.2_[T-1G]_H4.1_A4.1_F4.1_T4.2 (ssRNA)
RNA: UCUCUUCGUGUAUAUUAGUUCUCUU
B12: Id_ii_S1_P4E.2_K4.1_C4.2_[T-1A]_H4.1_A4.1_F4.1_T4.2_[T11G] (ssRNA)
RNA: UCUCUUCAUGUAUAUUAGGUCUCUU
B13: Id_ii_S1_P4E.3_K4.2_C4.2_[C-2G]_[T-1C]_H4.2_A4.1_F4.1_T4.2_[G10A]_[T11C] (ssRNA)
RNA: UCUCUUGCUAUAUAUUAACUCUCUU
B14: Ie_S1_P3E.2_K3.1_C3.2_H3.1_A3.1_[+6T]_F3.1_T3.2 (ssRNA)
RNA: UCUCUUCUUGUAUAUUAUAUCUCUU
B15: Id_ii_S1_P4E.3_K4.2_C4.2_[C-2G]_[T-1C]_H4.2_A4.1_F4.1_T4.2_[G10C]_[T11A] (ssRNA)
RNA: UCUCUUGCUAUAUAUUACAUCUCUU
B16: Id_ii_S1_P4E.2_K4.1_C4.2_[T-1C]_H4.1_A4.1_F4.1_T4.2_[G10A]_[T11C] (ssRNA)
RNA: UCUCUUCCUGUAUAUUAACUCUCUU
B17: Id_ii_S1_P4E.2_K4.1_C4.2_[T-1A]_H4.1_A4.1_F4.1_T4.2_[G10A] (ssRNA)
RNA: UCUCUUCAUGUAUAUUAAUUCUCUU
B18: Id_ii_S1_P4E.2_K4.1_C4.2_[C-2A]_H4.1_A4.1_F4.1_T4.2_[G10T] (ssRNA)
RNA: UCUCUUAUUGUAUAUUAUUUCUCUU
B19: Id_ii_S1_P4E.2_K4.1_C4.2_[T-1A]_H4.1_A4.1_F4.1_T4.2_[T11C] (ssRNA)
RNA: UCUCUUCAUGUAUAUUAGCUCUCUU
B20: Id_ii_S1_P4E.3_K4.2_C4.2_[C-2G]_[T-1C]_H4.2_A4.1_F4.1_T4.2_[G10C] (ssRNA)
RNA: UCUCUUGCUAUAUAUUACUUCUCUU
B21: Id_ii_S1_P4E.2_K4.1_C4.2_H4.1_A4.1_F4.1_T4.2_[G10A]_[T11C] (ssRNA)
RNA: UCUCUUCUUGUAUAUUAACUCUCUU
B22: Ib_S1_P4E.1_K4.1_C4.1_H4.1_[T3C]_A4.1_[T7C]_F4.1_T4.1 (ssRNA)
RNA: UCUCUUUGCAUACUAUCUCUU
B23: Id_ii_S1_P4E.2_K4.1_C4.2_[T-1C]_H4.1_A4.1_F4.1_T4.2_[G10T]_[T11C] (ssRNA)
RNA: UCUCUUCCUGUAUAUUAUCUCUCUU
B24: Id_ii_S1_P4E.2_K4.1_C4.2_[C-2A]_H4.1_A4.1_F4.1_T4.2 (ssRNA)
RNA: UCUCUUAUUGUAUAUUAGUUCUCUU
B25: Id_ii_S1_P4E.2_K4.1_C4.2_[T-1C]_H4.1_A4.1_F4.1_T4.2_[G10A] (ssRNA)
RNA: UCUCUUCCUGUAUAUUAAUUCUCUU
B26: Id_ii_S1_P4E.2_K4.1_C4.2_[T-1A]_H4.1_A4.1_F4.1_T4.2_[G10A]_[T11C] (ssRNA)
RNA: UCUCUUCAUGUAUAUUAACUCUCUU
B27: Id_ii_S1_P4E.2_K4.1_C4.2_H4.1_A4.1_F4.1_T4.2_[G10A] (ssRNA)
RNA: UCUCUUCUUGUAUAUUAAUUCUCUU
B28: Id_ii_S1_P4E.2_K4.1_C4.2_H4.1_A4.1_F4.1_T4.2_[G10C] (ssRNA)
RNA: UCUCUUCUUGUAUAUUACUUCUCUU
B29: Id_ii_S1_P4E.2_K4.1_C4.2_[T-1C]_H4.1_A4.1_F4.1_T4.2_[G10A]_[T11A] (ssRNA)
RNA: UCUCUUCCUGUAUAUUAAAUCUCUU
B30: Id_ii_S1_P4E.2_K4.1_C4.2_H4.1_A4.1_F4.1_T4.2_[G10T] (ssRNA)
RNA: UCUCUUCUUGUAUAUUAUUUCUCUU
B31: Id_ii_S1_P4E.2_K4.1_C4.2_[C-2A]_H4.1_A4.1_F4.1_T4.2_[G10A]_[T11A] (ssRNA)
RNA: UCUCUUAUUGUAUAUUAAAUCUCUU

Target: T1, PUF4 RNA-binding domain
Experiment: Mg; RNA-MaP; 20 mM Na-HEPES pH 7.4, 30 mM KOAc, 0.75 mM MgCl2, 0.1% Tween-20, 5% glycerol, 0.1 mg/mL BSA, 2 mM DTT; 25 C; 0.0125-409.6 nM protein
Details: tags: N-His6-TEV cleaved; C-SNAP kept, Cy3B-labelled; label: tethered on chip by stalled RNA polymerase

| Binder | Kd [nM] |
| --- | --- |
| B1 | 0.846 |
| B2 | 1.16 |
| B3 | 0.714 |
| B4 | 1.16 |
| B5 | 0.915 |
| B6 | 1.57 |
| B7 | 0.916 |
| B8 | 38.5 |
| B9 | 1.19 |
| B10 | 1.2 |
| B11 | 0.399 |
| B12 | 1.02 |
| B13 | 55 |
| B14 | 0.724 |
| B15 | 44.4 |
| B16 | 0.991 |

| Binder | Kd [nM] |
| --- | --- |
| B17 | 1.1 |
| B18 | 0.453 |
| B19 | 0.425 |
| B20 | 30.6 |
| B21 | 0.862 |
| B22 | 117 |
| B23 | 0.601 |
| B24 | 0.431 |
| B25 | 0.693 |
| B26 | 1.15 |
| B27 | 0.76 |
| B28 | 0.702 |
| B29 | 1.26 |
| B30 | 0.541 |
| B31 | 0.655 |
